In patent publication US20040022780A1, “Serine protease and topical retinoid compositions useful for treatment of acne vulgarise and production of anti-aging effects” (priority 1997, published 2004):

How the values were obtained:
[1] = tested on: Rhino mouse skin; experiment: Cutometer analysis of skin elasticity, Rhino mouse; format: in vivo
Method: (§1) To quantitate this effect, a cutometer analysis was performed. We used a cutometer available from Acaderm (Menlo Park, Calif.), and employed the methods described in Couturaud et al., “Skin Biomechanical Properties: In Vivo Evaluation of Influence of Age and Body Site by a Non-Invasive Method,” 1 Skin Res. and Technol. 68-73 (1995) and Elsner et al., “Mechanical Properties of Human Forearm and Vulvar Skin,” 122 Br. J. Dermatol. 607-614 (1990) which are both incorporated herein by reference in their entirety. Suction was applied through a 2 mm aperture and the corresponding skin displacement and recovery after release of the negative pressure were measured. In human studies, an improvement in the ratios of deformation parameters Ua/Uf (skin fatigue, or total recovery from the load), Ur/Uf (biological elasticity, or elastic recovery after loading), and Ur/Ue (firmness, or improvement in the deformation resistance of the skin) indicates better tonicity and elasticity of the skin. The deformation parameters Ue, Uf, Ua, and Ur are dependent, in part, on skin thickness. Consequently, ratios were used for evaluation as described in Barel et al., “Suction Method for Measurement of Skin Mechanical Properties: The Cutometer,” Handbook of Non-Invasive Methods and the Skin 335-340 (1995) which is incorporated herein by reference in its entirety.

[2] = tested on: utriculi of Rhino mouse skin; experiment: Rhino mouse utriculus size reduction (whole mount epidermis image analysis); format: in vivo; settings: single trypsin 1% (w/v) treatment, analyzed seven days later
[3] = tested on: C57B1/6 skin; experiment: Cutometer analysis of skin elasticity, C57B1/6 mouse; format: in vivo, C57B1/6 mice; settings: Day 16, trypsin treated
Method: as §1
FIGS. 3(c) and (d), the untreated and trypsin treated skins, respectively, show the results of elastin staining.

[4] = tested on: Rhino mouse skin; experiment: Histology after suboptimal trypsin, all-trans retinoic acid or both; format: in vivo; settings: suboptimal dose alone: 0.005% (w/v) trypsin or 0.0005% (w/v) all-trans retinoic acid
Method: A first set of Rhino mice of Example 1 were treated with suboptimal doses of the trypsin composition of Example 2. […] A second set of Rhino mice of Example 1 were treated with suboptimal concentrations of the all-trans retinoic acid composition of Example 2. A third set of Rhino mice of Example 1 were treated with both suboptimal doses of the trypsin composition of Example 2 and the all-trans retinoic acid composition of Example 2. In this third set of Rhino mice, the trypsin and all-trans retinoic acid treatments were each administered daily, but at different times (i.e. trypsin in the morning and all-trans retinoic acid in the afternoon). Mice were sacrificed and their skins were examined histologically with the procedure set forth in Example 3.

[5] = tested on: utriculi of Rhino mouse skin; experiment: Rhino mouse utriculus size reduction (whole mount epidermis image analysis); format: in vivo; settings: for Utriculus Size Reduction (%) vs. Liposome Control: topical once daily for five days, sacrificed day 8
Text: The Rhino mouse has been used as an experimental acne model to screen topically active comedolytic and antikeratinizing agents as described in Sundberg, J. P., “The Hairless and Rhino Mutations, Chromosome 14,” Handbook of Mouse Mutations With Skin and Hair Abnormalities 291-312 (1994), which is incorporated herein by reference in its entirety. A recessive mutation on chromosome 14 results in a mouse with wrinkled skin devoid of body hair by age 25 days. At that time, the end of the first hair cycle, the follicular papillae fail to follow the regressing hair follicles and become isolated in the dermis. […] The upper remnants of the hair follicle are filled with sloughed, cornified cells and form utriculi with a small sebaceous gland at their base, resembling an open comedone. The rhino skin becomes progressively loose, forming folds and ridges, due to the expansion of the surface, secondary to abortive hair follicles filling with cornified debris. The utriculi progressively enlarge, forming pilary cists (pseudocomedones), which are dilated follicular infundibula filled with cornified debris.
RHJ/LE Hairless (“Rhino”) male mice, 5-7 weeks of age, were obtained from Jackson Laboratories (Bar Harbor, Me.), and treated as described in Mezick et al., “Topical and Systemic Effects of Retinoids on Horn-Filled Utriculus Size in the Rhino Mouse: A Model to Quantify “Antikeratinizing” Effects of Retinoids,” 83 J. Invest. Dermatol. 110-113 (1984) (“Mezick”), which is incorporated herein by reference in its entirety.
Rhino mice of Example 1 were topically treated with the trypsin compositions (0.001% (w/v)-1% (w/v)) of Example 2 once daily for five days. Animals were sacrificed at day 8 and image analysis was used to quantify the reduction in utriculi size. For image analysis, whole mount epidermis was processed and microscopic measurements were taken according to the methods described in Mezick as well as Bernerd et al., “The Rhino Mouse Model: The Effects of Topically Applied All-Trans Retinoic Acid and CD271 on the Fine Structure of the Epidermis and Urticuli Wall of Pseudocomedones,” 283(2) Arch. Dermatol. Res. 100-107 (1991) and Bouclier et al., “Quantification of Epidermal Histological Changes Induced by Topical Retinoids and CD271 in the Rhino Mouse Model Using a Standardizing Image Analysis Technique,” 4(2) Skin Pharmacol. 65-73 (1991) which are each incorporated herein by reference in their entirety. Empire Imagins Database version 1.1 was used on a Gateway 2000 P5-100 computer for capturing images. Image Pro Plus version 1.3 was used for measurements and Microsoft Excel version 5.0 for data processing. The mean utriculus diameter (μ) and the mean sebaceous gland size (μ^2) were calculated for each treatment group (3 Rhino mice), using 5 random fields, two measurements per field, per animal. Percent reduction in utriculi diameter was calculated in accordance with the methods described in Finley, D. J., “Parallel Line Assays, Statistical Method in Biological Assay,” Charles Griffen & Company Ltd. 69-104 (1978) which is incorporated herein by reference in its entirety.

[6] = tested on: Rhino mouse skin; experiment: Visual irritation (scaling and erythema); format: in vivo; settings: up to 1% (w/v) trypsin; not dose dependent
[7] = tested on: hamster ear sebaceous gland; experiment: Hamster ear model, sebaceous gland size; format: in vivo, golden Syrian hamsters
Method: The possible effect of trypsin on the sebaceous component of acne was evaluated using the hamster ear model system. Young golden Syrian hamsters, 45-55 grams upon arrival, were purchased from Charles River Laboratories (Wilmington, Mass.). The ventral side of the hamsters' right ears were treated daily with 10 μl of the trypsin composition of Example 2, five days a week for three weeks, while the left ears were used as untreated controls.

B1: trypsin (protein, UniProt P00760 24-246, looked up)
Serine protease 1: IVGGYTCGANTVPYQVSLNSGYHFCGGSLINSQWVVSAAHCYKSGIQVRLGEDNINVVEGNEQFISASKSIVHPSYNSNTLNNDIMLIKLKSAASLNSRVASISLPTSCASAGTQCLISGWGNTKSSGTSYPDVLKCLKAPILSDSSCKSAYPGQITSNMFCAGYLEGGKDSCQGDSGGPVVCSGKLQGIVSWGSGCAQKNKPGVYTKVCNYVSWIKQTIASN
notes: lyophilyzed trypsin from Sigma-Aldrich, a serine protease, in Hepes buffer mixed with GDL liposomes
- Ua/Uf (skin fatigue, total recovery from the load) ([1]; Day 7, trypsin treated): 0.593 ± 0.09
- Ur/Ue (firmness) ([1]; Day 7, trypsin treated): 0.557 ± 0.21
- Ur/Uf (biological elasticity) ([1]; Day 7, trypsin treated): 0.359 ± 0.22
- Ua/Uf (skin fatigue, total recovery from the load) ([1]; Day 12, trypsin treated): 0.663 ± 0.10
- Ur/Ue (firmness) ([1]; Day 12, trypsin treated): 0.666 ± 0.24
- Ur/Uf (biological elasticity) ([1]; Day 12, trypsin treated): 0.548 ± 0.11
- Ua/Uf (skin fatigue, total recovery from the load) ([1]; Day 16, trypsin treated): 0.675 ± 0.03
- Ur/Ue (firmness) ([1]; Day 16, trypsin treated): 0.733 ± 0.18
- Ur/Uf (biological elasticity) ([1]; Day 16, trypsin treated): 0.404 ± 0.08
- effect on utriculus size reduction of a single treatment [2]: no effect
- Ua/Uf (skin fatigue, total recovery from the load) [3]: 0.675 ± 0.18
- Ur/Ue (firmness) [3]: 0.7335 ± 0.02
- Ur/Uf (biological elasticity) [3]: 0.404 ± 0.1
- skin histology of treatment given alone vs untreated skin [4]: marked inprovement
- Utriculus Size Reduction (%) vs. Liposome Control ([5]; Trypsin 0.001% (w/v) in GDL liposomes): 26.85 ± 4.38%
- Utriculus Size Reduction (%) vs. Liposome Control ([5]; Trypsin 0.005% (w/v) in GDL liposomes): 19.58 ± 3.06%
- Utriculus Size Reduction (%) vs. Liposome Control ([5]; Trypsin 0.01% (w/v) in GDL liposomes): 33.08 ± 2.15%
- Utriculus Size Reduction (%) vs. Liposome Control ([5]; Trypsin 0.05% (w/v) in GDL liposomes): 43.84 ± 0.62%
- Utriculus Size Reduction (%) vs. Liposome Control ([5]; Trypsin 0.1% (w/v) in GDL liposomes): 50.67 ± 0.83%
- Utriculus Size Reduction (%) vs. Liposome Control ([5]; Trypsin 0.5% (w/v) in GDL liposomes): 54.31 ± 1.33%
- Utriculus Size Reduction (%) vs. Liposome Control ([5]; Trypsin 1.0% (w/v) in GDL liposomes): 54.85 ± 1.02%
- maximal reduction of utriculus size relative to liposomal control ([5]; further increase in trypsin concentration above ~0.1% (w/v)): ≤ 55%
- trypsin concentration at which reduction in utriculus size reached a plateau ([5]; once daily for five days): ~0.1 % (w/v)
- visual irritation (scaling and erythema) [6]: minor scaling and erythema
- Sebaceous Gland Size ([7]; Trypsin 0.5% (w/v), 10 μl daily on ventral right ear, five days a week for three weeks): 95043.0 ± 4269.1 μ^2
- Percent Size Decrease (%) of sebaceous gland ([7]; Trypsin 0.5% (w/v), vs. liposome vehicle): −0.36 (vs. liposome %
- effect on the size of the sebaceous gland ([7]; hamster ear, daily, five days a week for three weeks): no effect
